This is an account of results in patent publication US11312984B2, “High-purity steviol glycosides” (PURECIRCLE SDN BHD, priority 2013, dated 2022).

This assay is described as follows: Activity of UGT76G1_Sc for the conversion of Rebaudioside D to Rebaudioside M. Format: biochemical. The following applies: based on initial concentration of Rebaudioside D; 21 h. How it is done:
UGT76G1_Sc was prepared according to EXAMPLE 34. Activity tests were performed at 2 mL scale with 200 μL of lysate for the transformation of Rebaudioside D using 0.5 mM of substrate, 2.5 mM of UDP-Glucose and 3 mM MgCl2 in 50 mM Sodium Phosphate buffer at pH 7.2. Samples were taken and analyzed by HPLC according to the method of EXAMPLE 20.

B1: UGT76G1_Sc (protein, UniProt Q6VAB4 1-458, looked up)
UDP-glycosyltransferase 76G1: MENKTETTVRRRRRIILFPVPFQGHINPILQLANVLYSKGFSITIFHTNFNKPKTSNYPHFTFRFILDNDPQDERISNLPTHGPLAGMRIPIINEHGADELRRELELLMLASEEDEEVSCLITDALWYFAQSVADSLNLRRLVLMTSSLFNFHAHVSLPQFDELGYLDPDDKTRLEEQASGFPMLKVKDIKSAYSNWQILKEILGKMIKQTKASSGVIWNSFKELEESELETVIREIPAPSFLIPLPKHLTASSSSLLDHDRTVFQWLDQQPPSSVLYVSFGSTSEVDEKDFLEIARGLVDSKQSFLWVVRPGFVKGSTWVEPLPDGFLGERGRIVKWVPQQEVLAHGAIGAFWTHSGWNSTLESVCEGVPMIFSDFGLDQPLNARYMSDVLKVGVYLENGWERGEIANAIRRVMVDEEGEYIRQNARVLKQKADVSLMKGGSSYESLESLVSYISSL
modifications: expressed in Saccharomyces cerevisiae
Take B1: the “Rebaudioside M selectivity (Retention Time ~6.7 min)” value is recorded as 100%.
